Data as given in the nanobody polyreactivity screen of Harvey et al. (2022).

Experiment: yeast display, Sf9 membrane polyspecificity reagent, FACS + sequencing; frameworks hold sequencing errors
Outline: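 Nanobodies from a synthetic yeast display library (Saccharomyces cerevisiae BJ5465), induced 36–48 hours with galactose, were stained 1 hour at 4 °C with 10% biotinylated, detergent-solubilized Sf9 membrane reagent, enriched on streptavidin microbeads, then FACS-sorted. Anti-HA (expression) and streptavidin (reagent binding) fluorescence set low and high (top ~1%) gates. Polyreactivity labels come from the gate of origin. Genes were colony-PCR amplified, MiSeq 2 × 250 sequenced and filtered by CDR length.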

For “QVQLVDSGGGLFQPGGSLRLSCAASGSTFSDNAMGWYRQAPGKERELVASISSDDGSTYADSVKGRFTISRDNAMNTVYLQMNSLKSEDTAVYYCAADGFLAIYAAEYDYWGQGTQVTVSS”, the “polyreactivity (PSR sort gate)” value was “low polyreactivity”.
For “QVQLVESGGGLVQAGGSLRLSCAASGSTFPRNDMGWYRQAPGKERELVAAISRGGSTNYADSVKGRFTISRDNAKNTVYLQMNSLKPEDTAVYYCAAQIFECAYGMDYWGQGTQVTVSS”, the “polyreactivity (PSR sort gate)” value was “low polyreactivity”.
With “QVQLVESGGGLVQAGGSLRLSCAASGSIFTLYAMGWYRQAPGKERELVATINWSGGSTSYADSVKGRFTISRDNAKNTVYLQMNSLKPEDTAVYYCAADYYFWHGTGYDYWGQGTQVTVSS” the “polyreactivity (PSR sort gate)” value was “low polyreactivity”.
With “QVQLVESGGGLVQAGGSLRLSCADSGSILIYNAMGWYRQAPGKERELVAGISRRGASTYYADSVKGRFTISRDNAKNTVSLQMNSLKQEDTAVYYCAALGKYIVAWSGDYWGQGTQVTVSS” the “polyreactivity (PSR sort gate)” value was “low polyreactivity”.
With “QVQLVESGGGLVQAGGSLRLSCAASGRTFRRYAMGWYRQAPGKEREFVAAIRYSGGNTYYADSVKGRFTISRDNAKNTVYLQMNSLKPEDTAVYYCAARTYGKYRYSTYYYWGQGTQVTVSS” the “polyreactivity (PSR sort gate)” value was “low polyreactivity”.
With “QVQLQESGGGLVQAGGSLRLSCAASGSNSILQSMGWYRQAPRKERELVAGINWGATTYYADSVKGRLTTSRDYAINTVYLQMNSLKPEATAVYYCAVPTYYTYPLLYWGQGTQVTVSS” the “polyreactivity (PSR sort gate)” value was “low polyreactivity”.
For “QVQLVESGVGLVQAGGSLRLSCAASGIIFVTYTMAWYRQAHGKEREFVAAITRRGSRTYYADSVKGRFTISRDNAKNTVYLQMNSPKPEDTAVYYCNAVPRWSYVDEDSWGQGTQVTVSS”, the “polyreactivity (PSR sort gate)” value was “high polyreactivity”.
In the case of “QVQLVESGGGLVQAVGSLRLSCAASGHIFCYYTMGRYRQAPGKERELVAGITIGGSTNYADSVKGRFTISRDNAKNTVYLQMNSLKPEDTAVYYCNVVKYVYIYSYWEYYYWGQGTQVTVSS”, the “polyreactivity (PSR sort gate)” value is reported as “low polyreactivity”.
With “QVQLVESGGGLVQAGGSLRLICAASGRIFLTYAMGWYRQAPGKERELVAAISTSGTRTYYADSVKGRFTISRDTAKKTVYLQMNSLKPEDTAVYHCAREKYNYRTYEYWGQGTQVTVSS” the “polyreactivity (PSR sort gate)” value was “high polyreactivity”.
With “QVQLVESGGGLVQAGGSLRLSCAASGGIFYLNAMGWYREAPGKERELVAAISSGVSTYYADSVKGRFTISRDNAKNTVYLQMNSLKPEDTAVYYCNADYNYPAWVGSWWDYDYWGQGTQVTVSS” the “polyreactivity (PSR sort gate)” value was “low polyreactivity”.
In the case of “QVQLVESGGGLVQPGGSLRLSCAASGGIFRSYAMGSYRQAPGKERELVAVITKSGGDTYYADSVKGRFTISRDNAKNTVYLQMNRVKPVDTAVYYCAAVYGYYTYWIPGFTWAVDYWGQGTQVTVSS”, the “polyreactivity (PSR sort gate)” value is reported as “low polyreactivity”.
For “QVQLVESGGGLVQAGGSLRLSCAASGSIFSRYTMGWYRQAPGKERELVAAISGSTTRTYYADSVKGRFTISRDNAKNTVYLQMNSLKPEDTAVYYCAATRGRGGRDDYWGQGTQVTVSS”, the “polyreactivity (PSR sort gate)” value was “high polyreactivity”.
For “QVQLVESGGGLVQAGGSLRLSCAASGFTLQQYTMGWYRQAPGKERELVAAISTSGVRTYYADSVKGRFTISRDNAKNTVYLQMNSLKPEDTAVYYCNAAWVYGIGWYSGYDYWGQGTQVTVSS”, the “polyreactivity (PSR sort gate)” value was “high polyreactivity”.
In the case of “QVPLVESGGGLVQAAGSLRLSCAASGRISLGYAMGWYRQAPGKERELVAAISRGGTNTYYADSVKGRFTISRDNAKNTVYLQMNSLKPEDTAVYYCAARYSWGQGTQVTVSS”, the “polyreactivity (PSR sort gate)” value is reported as “high polyreactivity”.
With “QVQLVESGGGLVQAGGSLRLSCAASGSTFSKNAMGWYRQAPGKERELVAAIRSRGGSTYYADSVKGRFTISRDNAKNTVYLQMNSLKPEDTAVYYCNKVRAYEGDYWGQGTQVTVTS” the “polyreactivity (PSR sort gate)” value was “high polyreactivity”.
In the case of “QVQLVESGGGLVQAGGSLRLSCAASGRIFIYYAMGWYRQAPGKERELVAAITSGGSTIYADSVKGRFTIPRDNAKNTVYLQMNSLKPEDTAVYDCAARYVRSQTRFDYWGQGTQVTVSS”, the “polyreactivity (PSR sort gate)” value is reported as “high polyreactivity”.
With “QVQLVESGGGLVQAGGSLRLSCAASGSTFLYNAMGWYRQAPGKEREFVAAISGSGGTTYYADSVKGRFTISRDNAKNTVYLQMNSLNPEDTAVYYCAVSQSWYWYYASDYWGQGTQVTVSS” the “polyreactivity (PSR sort gate)” value was “low polyreactivity”.
In the case of “QVQLVESGGGLVQAGGSLRLSSAASGRIFYNYAMGWYRQAPGKERELVAAISVSGGSTYYADSVKGRFTISRDNAKNTVYLQMNSLKPEDTAVYYCAAGRGYTYNYWGQGSQVTVSS”, the “polyreactivity (PSR sort gate)” value is reported as “high polyreactivity”.
For “HVQLVESGGGLVQAGGSLRISCAASGRTFYSYVMGWYRQAPGKQRQLVAAISSGGGRTYYADSVKGRFTISRDNAKHTVYLQMNSLKPEDTAVYYCNAVTRGTRWGLPYEYWGQGTQVTVSS”, the “polyreactivity (PSR sort gate)” value was “high polyreactivity”.
In the case of “QVQLVESGGGLVQAGGSLRLSCAASGSTFSRYAMGWSRQAPGKERELVAVITGSGGSTYYADSVKGRFTISRDNAKNTVYLQMNSLKPEDTAVYYCNAVYFALSPQYYWAASDYWGQGTQVTVSS”, the “polyreactivity (PSR sort gate)” value is reported as “high polyreactivity”.
With “QVQLVESGGGLVQAGGSLRLSCAASGSISQTYAMGWYRQAPGKERELVAAISSSGASTYYADSVKGRFTISRDNAKNTVYLQMNSLKPEDTAVYYCAVVPSSTYHSYDYWGQGTQVTVSS” the “polyreactivity (PSR sort gate)” value was “high polyreactivity”.
For “QVQLVESGGGLVQAGGSLRLSCAASGSIFPYYAMGWYRQAPGKERELVAAINWSGDSTYYADSVKGRFTISRDNAKNTVYLQMNSLKPEDTAVYYCAARSRWRYDYWGQGTQVTVSS”, the “polyreactivity (PSR sort gate)” value was “low polyreactivity”.
In the case of “KVQLVESGGGLVQAGGSLRISCAASGIIFLGYAMGWYRQAPGKERELVAGISSRGGSTYYADSVKGRFTISRDNAKNTVYLQMNSLKPADSAVYYCAAVSRGSGRDYWGQGTQVTVSS”, the “polyreactivity (PSR sort gate)” value is reported as “high polyreactivity”.
For “QVQLVESGGGLVQAGGSLRLSCAASGRIFYAYAMGWYRQAPGKERELVAAISSGGSTKYADSVKGRFTISRDNAKNTVYLQMNSLKPEDTAVYYCNADATAQSFGTLFDYWGQGTQVTVSS”, the “polyreactivity (PSR sort gate)” value was “low polyreactivity”.
In the case of “QVQLVESGGGLVQAGGSLRLSCAASGNTFNKYAMGWYRQAPGKERELVAAISYSGGSTYYADSVKGRFTISRDNAKNTVYLQMNSLKPEDTAVYYCNAVYYVYPRRYDYWGQGTQVSVSS”, the “polyreactivity (PSR sort gate)” value is reported as “high polyreactivity”.
In the case of “QVQLVESGGGLVQAGGSLRLSCAASGSIFPQYAMGWYRQAPGTERELVAAISSSGGRTYYADSVKGRFTISRDNAKYTVYLQMNSLKPEDTAVYYCITRWRSRYGYGDQSEDYWGQGTQVTVSS”, the “polyreactivity (PSR sort gate)” value is reported as “high polyreactivity”.
In the case of “QVQLVESGGGLVQAGGSLRLSCAASGIIFYIYAMGWYRQAPGKERELVAGISWRGGSTSYADSVKGRFTISRDNAKNTVYLQMNSLKPEDTAVYYCAAEVYSWDGYDYWGQGTQVTVSS”, the “polyreactivity (PSR sort gate)” value is reported as “low polyreactivity”.
In the case of “QVQLVESGGCLVQAGGTLRLSCASSGNTFVDYGMGWYRQAPGKERELVAAITRGGTTKYADSVKGRFTISRVNAKNKVYLQMNSLKPEDTAVYYCAAEWPVNFDYWGKGTQVTVSS”, the “polyreactivity (PSR sort gate)” value is reported as “low polyreactivity”.
For “QVQLQESGGGLVQAGGSLRLSCAASGSITRYYDMGWYRQAPGKEREFVAGISGGAITYYADSLKGRFTISRDNAKNTVYLQMNSLKPEDTAVYYCAADTGVYQYHSYWGQGTQVTVSS”, the “polyreactivity (PSR sort gate)” value was “low polyreactivity”.
In the case of “QVQLVESGGGLVQAGGTLRLSCAASGSIFPYYVMGWYRQAPGKERELVAAISTSDGSTYADSVKGRFTISRDNAKNTVYFQMNSLKPEDTAVYYCAVANVYYEGYDYWGQGTQVTVSS”, the “polyreactivity (PSR sort gate)” value is reported as “low polyreactivity”.
For “QVQLVESGGCLVQAGGSLRLSCAASGFTFQKYAMGWYRQAPGKERELVAAISWSGSSTYYADSVKGRFTISRDNAKNTVYLQMNSLKPEDTAFYYCAADSYYIQERDYWGQGTQVTVSS”, the “polyreactivity (PSR sort gate)” value was “high polyreactivity”.
In the case of “QVQLVESGGGLVQAGGSLRLSCAASGSTFKFNTMGWYRQAPGKERELVAAISWRGGSTYYADSVKGRFTISRDNAKNTVYLQMYSLKPEDTAFYYCAAPWYIRYDSWGQGTQVTVSS”, the “polyreactivity (PSR sort gate)” value is reported as “high polyreactivity”.
In the case of “QVQLVESGGGLVQAGGSLRLSCAASGSTFELNAMGWYRQAPGKERELVAVITISGGNTYYADSVKGRFTISRDNAKNTVDLPMNSLKPDDTAVYYCAARPITTSITRYGFWGQGTQVTVSS”, the “polyreactivity (PSR sort gate)” value is reported as “high polyreactivity”.
For “QVQLVESGGGLVQAGGSLRLSCAAAGLTFEWYTMGWYRQAPGKERELVADISGDGSTYYADSVKGRFTISRDNAKNTVYLQMNSLKPEDTAVYYCAASFWGFAMGYWGQGTQVTVSS”, the “polyreactivity (PSR sort gate)” value was “high polyreactivity”.
In the case of “QVQLVESGGGLDQAGGSLRLSCPASGSTFSNYAMGWYRQEPGKERELVAAISVRGGSTYYADSVKGRFTISRDNAKNTVYLQMNSLKPEDTAVYYCNADTDYRDDMDYWGQGTQVTVSS”, the “polyreactivity (PSR sort gate)” value is reported as “high polyreactivity”.
In the case of “QVQLVESGGGLVQAGGSLRLICAASGYTFGGYAMGWYRQAPGKERVLVAAISTDGDSTFYADSVKGRFTISRDNAKNTVYLQMNSLKPEDTAVYYCAASVNTGSVTEYDYWGQGTQVTVSS”, the “polyreactivity (PSR sort gate)” value is reported as “low polyreactivity”.
With “QVQHVESGGGLVQAGGSLRLSCAASGIIFYWYAMGWYRQAPGKERELVAAISRTGGSTYYADSVKGRFTISRDNAKNTVYLQMNSLKPEDTAVYYCAADDGGYWSAGHEYWGQGTQVTVSS” the “polyreactivity (PSR sort gate)” value was “high polyreactivity”.
In the case of “QVQLVESGGGLVQAGGSLRLICAASGLIFPRYDMGWYRQAPGKERELVAAITSGGGTYYADSVKGRFTISRDNAKNTVYLQMNSLKPEDTAVYYCARDHYRHSRYFYRYDYWGQGTQVTVSS”, the “polyreactivity (PSR sort gate)” value is reported as “low polyreactivity”.
For “QVQLVESGGGLVQAGGSLRLSCAASGFIFRYNTMGWYRQAPGKQRELVATITSGGSTYYADSVKGRFTISRDNAKNTFYLQMNSLKPEDTAVYYFAKVRDVLWRFNYWGQGTQVTVSS”, the “polyreactivity (PSR sort gate)” value was “high polyreactivity”.
For “QVQLVESGGGLVQAGGSLRLSCAASGRILFRYGMGWYRQAPGKERELVARISWSGGNTHYADSVKGRFTISRDNAKNTVYLQMNSLKPDDTAVYYCNAYYTYWYPRYDYWGQGTQVTVSS”, the “polyreactivity (PSR sort gate)” value was “low polyreactivity”.
With “QVQLVESAGGLVQAGGSLRLSCAASGRIFPFYAMGWYRQAPGKERELVAAISWNGGSTFYADSVKGRFTISRDNAKNTVYLQMNSLKPEDTAVYYCNADCRPAYTYDYWGQGTQVTVSS” the “polyreactivity (PSR sort gate)” value was “low polyreactivity”.
In the case of “QVQLVESGVGLVQSGGSLRLSCAASGFSIEPYAMGLYRQAPGKERELVAAISWSGGSTYYADSVKGRFTISRDNAKNTVYLQMNSLKPEDTAVYYCAAEWYNSAYYEYDYWGQGTQVTVST”, the “polyreactivity (PSR sort gate)” value is reported as “high polyreactivity”.
For “QVQLVESGGGLVQAGGSLRLICAGSGLTFPYYTMGWYRQAPGEERELVAAISRRGGSTYYADSVKGRFTISRDNAKNTVYLQMNSLKPEDTAVYYCAADKYSWYDYWGQGTQVTVSS”, the “polyreactivity (PSR sort gate)” value was “low polyreactivity”.
